{
  "source": "paper PMC12691602",
  "about": "“Cryo-EM structure of the QseG-QseE complex reveals an accessory protein-driven two-component system activation mechanism” (mBio, 2025)",
  "molecules": {"B1": {"name": "QseG (protein)", "chain": "CVQNHNKPAIDTPAEEKIPVYQLADYLSTECSDIWALQGKSTETNPLYWLRAMDCADRLMPAQSRQQARQYDDGSWQNTFKQGILLADAKITPYERRQLVARIEALSTEIPAQVRPLYQLWRDGQALQLQLAEERQRYSKLQQSSDSELDTLRQQHHVLQQQLELTTRKLENLTDIERQLSTRKPAGNFSPDTPHESEKPAPSTHEVTPDEP"}, "B2": {"name": "QseG_(37-221) (domain or fragment)", "chain": "CVPHASQQLPDSAAQDTLPHYQLADYLPTACADIWSLRGQAVETNPLYWLRTIDCADRLMPVQSRAEARALTDDNWQNAFRRGILLADAKITPPERRAIVTRLEALSAQIPAQVRPVYQIWHDGQALQLALSAERQRYSKLQQTSDSELDALRQQQQALQTQLDLTTRKLESLTDIERQLSTRKP", "notes": "QseG of S. Typhimurium SL1344, residues 37-221; Homodimer in the cryo-EM structure of the complex; source: E. coli C43(DE3), purified (Strep-Tactin, on-column TEV cleavage, SEC); not shown: Strep II, N-terminal, cleaved"}, "B3": {"name": "full-length QseE (QseEfl), C-terminal Strep II tag (natural protein)", "chain": "MLAFLLILLPLLVLAWQAWQSLNALSDQAAVTNRSTLIDARRSEAMTNVALEMERSYRQYCVLDDPTLAKVYQSQRKRYSDMLDAHAGVLPDDKLYQALRQDLNALAQLQCKDSGPEAAAAARLEAFANANTEMVQATRTVVYSRGQQLQQEIAERGQFFGWQALVLFLVSLAMVLLFTRMIIGPVKGIERMINRLGEGRSLGNTVTFTGPRELRSVGQRIIWLSERLAWLESQRHQFLRHLSHELKTPLASMREGTELLADQVVGPLTPEQKEVVDILDDSSRNLQKLIEQLLDYNRKLVDSATELEAVDIAPLVDMVVSAHSLPARAKMMHTDVDLEAERCIAEPMLLMSVLDNLYSNAVHYGAESGNICIRSRSQGSTVYIDVVNSGEPIPQTEREMIFEPFFQGSHQRKGAVKGSGLGLSIARDCIRRMQGEIQLVDDKAQEVWFRISLPLPASDKH", "notes": "Dimer by cross-linking and in the cryo-EM structure; also called strep-tagged QseE; source: E. coli C43(DE3), purified from membranes in LMNG/CHS (Strep-Tactin, SEC); not shown: Strep II, C-terminal, kept"}, "B4": {"name": "QseG (mature lipoprotein, QseG_(37-end)) (natural protein)", "chain": "CVPHASQQLPDSAAQDTLPHYQLADYLPTACADIWSLRGQAVETNPLYWLRTIDCADRLMPVQSRAEARALTDDNWQNAFRRGILLADAKITPPERRAIVTRLEALSAQIPAQVRPVYQIWHDGQALQLALSAERQRYSKLQQTSDSELDALRQQQQALQTQLDLTTRKLESLTDIERQLSTRKPAGNYNADTPHTNDKPATSEDGAAPSPSQDEVTP", "notes": "also called wild-type QseG; source: E. coli C43(DE3), purified (Strep-Tactin, on-column TEV cleavage, SEC); not shown: Strep II, N-terminal, cleaved"}},
  "key": {"[1]": {"target": "strep-tagged QseE_(1-196) (Salmonella enterica serovar Typhimurium SL1344)", "assay": "cross-linking; QseE constructs in solution (Fig. S2A); cross-linker and conditions not shown"}, "QseE": {"target": "T1, QseE (Escherichia coli, UniProt Q8XA47)", "T1 chain": "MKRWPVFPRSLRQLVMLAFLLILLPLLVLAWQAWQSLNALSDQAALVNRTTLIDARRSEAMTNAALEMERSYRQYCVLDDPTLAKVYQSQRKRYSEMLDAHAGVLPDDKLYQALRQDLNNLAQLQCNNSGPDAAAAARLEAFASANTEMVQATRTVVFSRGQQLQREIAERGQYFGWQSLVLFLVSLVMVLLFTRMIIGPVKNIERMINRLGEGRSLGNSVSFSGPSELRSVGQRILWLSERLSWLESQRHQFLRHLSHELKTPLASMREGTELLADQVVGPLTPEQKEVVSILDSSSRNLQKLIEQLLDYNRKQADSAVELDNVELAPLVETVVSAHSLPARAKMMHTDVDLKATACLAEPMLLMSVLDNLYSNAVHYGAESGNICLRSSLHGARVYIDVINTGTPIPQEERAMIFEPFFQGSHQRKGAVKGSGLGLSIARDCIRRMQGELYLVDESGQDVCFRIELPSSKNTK"}, "[2]": {"target": "the molecule itself", "assay": "cryo-EM structure; QseG_(37-221) and QseE mixed at 3:1 molar ratio, complex separated by SEC; 3.9 Å map with C2 symmetry imposed; model limited to QseG 58-220 and QseE 34-173"}, "QseE-eGFP": {"target": "T2, QseE-eGFP (Salmonella enterica serovar Typhimurium …, UniProt A0A4Z0KJZ8 1-461)", "T2 construct": "QseE of S. Typhimurium SL1344 fused to eGFP; source: E. coli, purified", "T2 sequence": "B3 chain", "assay": "MST; QseG_(37-end) in serial dilution mixed with QseE-eGFP; 20 mM HEPES pH 7.5, 150 mM NaCl, 0.02% DDM, 0.05% Tween 20; 25°C, 30 min; Monolith NT.115, medium MST power, 40% LED", "conditions": "both partners purified"}},
  "data": [
    {"molecule": "strep-tagged QseE_(1-196) (from UniProt A0A4Z0KJZ8 1-196) (domain or fragment)", "values": [
      {"measurement": "stoichiometry N", "setting": "[1]", "value": 2}
    ]},
    {"molecule": "B1", "values": [
      {"measurement": "Kd", "setting": "QseE", "value": 109, "unit": "nM"}
    ]},
    {"molecule": "B2", "values": [
      {"measurement": "stoichiometry N", "setting": "[2]", "value": 2}
    ]},
    {"molecule": "B3", "values": [
      {"measurement": "stoichiometry N", "setting": "[2]", "value": 2}
    ]},
    {"molecule": "B4", "values": [
      {"measurement": "Kd", "setting": "QseE-eGFP", "value": 108, "unit": "nM"}
    ]}
  ]
}
